We go through three molecules from patent US20060166860A1, “Zinc transporter compositions for the treatment of cardiovascular diseases” (priority 2002, published 2006).

Entries after “also recorded” stand apart in the source; their conditions may differ.

For test [1], the system named is intracellular zinc. As to the kind of experiment: Fura-2 fluorescence signal of intracellular zinc in HEK 293 cells. The note with it: HEK 293 cells exposed to zinc, then TPEN (FIG. 1, FIG. 3 inset). Format: cell-based, human. Here is the method:
(§1) Cells were incubated for 30 minutes with 5 μM of the ratiometric dye Fura-2-AM (TEF Labs) in 0.1% BSA-sodium Ringer's solution. Fura-2-AM binds zinc with very high affinity. After incubation, the cells were washed in Ringer's solution and the cover glass mounted on a holder that allowed the perfusion of liquids into the cells. Signals resulting from Ca^+2 or Zn^+2 changes were distinguished by using the intracellular zinc chelator TPEN. Changes in intracellular cation concentration were monitored by a single cell imaging system, consisting of a Zeiss Axiovert 100, inverted microscope, Polychrome II monochromator (TILL Photonics) and a cooled CCD (PCO). The data was acquired and processed by Axon Imaging Workbench 2, Excel and KleidaGraph. Fura-2 was excited at 340 nm and 380 nm and the image obtained with a 510 nm long-pass filter. The data was analyzed post acquisition, by selecting single cells (30-50) from the field of view and recording their activity.
To measure the accumulation of intracellular zinc, HEK 293 cells were superfused with Ca-free, zinc-containing Ringer solution, and the […] of Fura-2 was evaluated. Fura-2 is a highly sensitive probe for changes in intracellular Zn^2+ concentration.

Test [2] concerns ZnT-1. The test is described as follows: ZnT-1 expression in cultured brain astrocytes by Western Blot. The class given is cell-based. The conditions noted are these: 20 and 50 μM Zn for 12 hours (FIG. 9). Here is the method: (§2) Western Blots were carried out in the classical method described in Molecular Cloning—A laboratory manual by Sambroock et al., Cold Spring Harbor Laboratory Press, 2nd edition, 1989.
In astrocytes, zinc influx is mainly mediated by the LTCC. Astrocytes were treated with sub-lethal amounts (20 and 50 μM) of Zn for 12 hours, and ZnT-1 expression evaluated by Western Blot (FIG. 9b).

Test [3] relates to LTCC. As to the kind of experiment: Zinc influx in astrocytes pre-treated with zinc. The class given is cell-based. The note with it: astrocytes pre-treated with 20, 50 or 100 μM zinc for 24 or 48 hours (FIG. 10). On the procedure: Cells were superfused with a Ringer's solution containing: 120 mM NaCl, 5 mM KCl, 20 mM glucose, 10 mM Hepes, 0.5 mM MgCl, 1.8 mM CaCl2 at pH 7.4. For depolarization experiments aimed to fully activate the LTCC, 45 mM NaCl were replaced with 45 mM KCl. ZnSO4 was added at the indicated concentration to this solution.
as §1, with “Fura-2 was excited at 340 nm and 380 nm and the image obtained with a 510 nm long-pass filter.” left out
Astrocytes were pre-treated with 20, 50 or 100 μM of zinc for 24 or 48 hours, and subsequent rates of zinc influx were determined. […]

Test [4] deals with LTCC. As to the kind of experiment: Zinc influx into HEK 293 cells transfected with LTCC alone or with ZnT-1. The class given is cell-based, human. Here is the method: (§3) PC12 and human embryonic kidney (HEK) 293 cells were grown in DMEM medium (Sigma) as described [Montrose Rafizadeh, C. et al. (1997) J. Cell Physiol. 170:299-308], and seeded on cover slides for 1-2 days prior to measurements.
(§4) HEK 293 cells were transiently transfected with 3 μg of plasmid containing ZnT-1 (kindly provided by Dr. R. D. Palmiter, Howard Hughes Medical Institute, University of Washington, Seattle, Wash.) or vector alone, using the calcium precipitation method as described [Sekler, I. et al. (1995) J Biol. Chem. 270:11251-6]. Pherochromocytoma PC12 cells were co-transfected with ZnT-1 or EYFP (Clontech) for control, using the Fugene-6 reagent (Roche). Measurements were performed 36-48 hours following transfection. […]
Cells were incubated for 30 minutes with 5 μM of the ratiometric dye Fura-2-AM (TEF Labs) in 0.1% BSA-sodium Ringer's solution. […] Changes in intracellular cation concentration were monitored by a single cell imaging system, consisting of a Zeiss Axiovert 100, inverted microscope, Polychrome II monochromator (TILL Photonics) and a cooled CCD (PCO). […] The data was analyzed post acquisition, by selecting single cells (30-50) from the field of view and recording their activity.
Rates of zinc influx into HEK293 cells transfected with LTCC only or co-transfected with LTCC and ZnT-1 were measured. […]

In test [5] the test system is L-type Ca channel (LTCC). The test is described as follows: Zinc influx into HEK 293 cells, Fura-2 fluorescence. Format: cell-based, human. The conditions noted are these: control vs ZnT-1 transfected HEK 293 cells, 400 μM zinc (FIG. 4a). Here is the method: as §3, §4
(§5) Cells were incubated for 30 minutes with 5 μM of the ratiometric dye Fura-2-AM (TEF Labs) in 0.1% BSA-sodium Ringer's solution. […] Changes in intracellular cation concentration were monitored by a single cell imaging system, consisting of a Zeiss Axiovert 100, inverted microscope, Polychrome II monochromator (TILL Photonics) and a cooled CCD (PCO). […] The data was analyzed post acquisition, by selecting single cells (30-50) from the field of view and recording their activity. […]
Control and ZnT-1 transfected HEK 293 cells were exposed to 400 μM zinc, and the rate of zinc influx was monitored over time (FIG. 4a-b).

The test system of test [6] is LTCC. As to the kind of experiment: LTCC expression by immunoblot, PC12 cells endogenously expressing LTCC. The class given is cell-based. The note with it: presence or absence of ZnT-1 (FIG. 7). Here is the method:
as §2
(§6) Thus, ZnT-1 putative regulation of LTCC is likely to be at the functional level, and not at the expression level.
A general note: A western blot detects proteins with antibodies after separation by electrophoresis.

Test [7] concerns LTCC. The test is described as follows: LTCC expression by immunoblot, HEK 293 cells transfected with LTCC. The class given is cell-based, human. The conditions noted are these: presence or absence of ZnT-1 (FIG. 7). On the procedure:
as §2, §6

Test [8] has as its system LTCC. The test is described as follows: Immunoprecipitation with ZnT-1 antibody and Western blot with LTCC antibody, HEK 293 cells. The class given is binding, human. The note with it: HEK 293 cells co-transfected with LTCC and ZnT-1 (FIG. 11). On the procedure: as §2
(§7) Immunopercipitation using ZnT-1 antibody followed by Western blot with LTCC antibody was performed.

For test [9], the system named is HEK 293 cells. The test is described as follows: Zinc efflux in HEK 293 cells transfected with ZnT-1. The conditions noted are these: cells transfected with ZnT-1 vs non-transfected (FIG. 3). The class given is cell-based, human. On the procedure:
as §3
(§8) HEK 293 cells were transiently transfected with 3 μg of plasmid containing ZnT-1 (kindly provided by Dr. R. D. Palmiter, Howard Hughes Medical Institute, University of Washington, Seattle, Wash.) or vector alone, using the calcium precipitation method as described [Sekler, I. et al. (1995) J Biol. Chem. 270:11251-6]. Pherochromocytoma PC12 cells were co-transfected with ZnT-1 or EYFP (Clontech) for control, using the Fugene-6 reagent (Roche). Measurements were performed 36-48 hours following transfection.
Cells were incubated for 30 minutes with 5 μM of the ratiometric dye Fura-2-AM (TEF Labs) in 0.1% BSA-sodium Ringer's solution. Fura-2-AM binds zinc with very high affinity. […] Changes in intracellular cation concentration were monitored by a single cell imaging system, consisting of a Zeiss Axiovert 100, inverted microscope, Polychrome II monochromator (TILL Photonics) and a cooled CCD (PCO). […] The data was analyzed post acquisition, by selecting single cells (30-50) from the field of view and recording their activity.

Test [10] relates to LTCC. As to the kind of experiment: Immunoprecipitation with ZnT-1 antibody and Western blot with LTCC antibody, cardiac tissue. The note with it: mouse cardiac tissue expressing both ZnT-1 and LTCC (FIG. 11). The class given is binding. On the procedure: as §2, §7
Test [11] deals with L-type Ca channels. The test is described as follows: Ca influx into depolarized PC12 cells expressing endogenous L-type Ca channels. The class given is cell-based. The note with it: ZnT-1 transfected vs control PC12 cells, 1.8 mM calcium, high K+ (FIG. 8). Here is the method: as §3, §8
Cells were superfused with a Ringer's solution containing: 120 mM NaCl, 5 mM KCl, 20 mM glucose, 10 mM Hepes, 0.5 mM MgCl, 1.8 mM CaCl2 at pH 7.4. […]
as §5

As to `c1ccc(CN(CCN(Cc2ccccn2)Cc2ccccn2)Cc2ccccn2)nc1` [TPEN, tetrakis-(2-pyridylmethyl)ethylenediamine], the Fura-2 fluorescence signal result in test [1] is “lowered the fluorescence signal; also recorded: eliminated”.

As to `[Zn+2]` [Zinc, ZnSO4], the ZnT-1 expression entry in test [2] (listed as Zn^2+) is recorded as “induced by Zn^2+ in a dose-dependent manner”; in test [2] (listed as Zn^+2), “induced by Zn^+2 in a dose-dependent manner”. Besides, in [3], the “rate of zinc influx” value was “reduction of zinc influx”.

B1: ZnT-1: protein encoded by the gene ZnT-1, originally described as a zinc transporter; GenBank Accession No. U17132; expressed by transfection (protein, UniProt Q9Y6M5 1-507, looked up)
Proton-coupled zinc …: MGCWGRNRGRLLCMLALTFMFMVLEVVVSRVTSSLAMLSDSFHMLSDVLALVVALVAERFARRTHATQKNTFGWIRAEVMGALVNAIFLTGLCFAILLEAIERFIEPHEMQQPLVVLGVGVAGLLVNVLGLCLFHHHSGFSQDSGHGHSHGGHGHGHGLPKGPRVKSTRPGSSDINVAPGEQGPDQEETNTLVANTSNSNGLKLDPADPENPRSGDTVEVQVNGNLVREPDHMELEEDRAGQLNMRGVFLHVLGDALGSVIVVVNALVFYFSWKGCSEGDFCVNPCFPDPCKAFVEIINSTHASVYEAGPCWVLYLDPTLCVVMVCILLYTTYPLLKESALILLQTVPKQIDIRNLIKELRNVEGVEEVHELHVWQLAGSRIIATAHIKCEDPTSYMEVAKTIKDVFHNHGIHATTIQPEFASVGSKSSVVPCELACRTQCALKQCCGTLPQAPSGKDAEKTPAVSISCLELSNNLEKKPRRTKAENIPAVVIEIKNMPNKQPESSL
notes: protein encoded by the gene ZnT-1, originally described as a zinc transporter; expressed by transfection
In the case of B1, the zinc influx entry in test [4] (HEK 293, co-expression of LTCC and ZnT-1 vs LTCC alone and non-transfected control (FIG. 6)) is given as “reduction in the zinc influx to levels comparable to control; also recorded: reduction in the cation influx to levels comparable to control”. Further, the “reduction in rate of zinc permeation through LTCC” value in [4] (HEK293 co-transfected with LTCC and ZnT-1 vs LTCC alone (FIG. 4c)) is listed as 5 fold. Moreover, the “rate of zinc influx” value in test [5] was “attenuated”. Besides, the LTCC expression level result is “Neither cell type showed changes; also recorded: not changed; also recorded: without changing LTCC expression” in test [6] and “Neither cell type showed changes; also recorded: not changed” in test [7]. Moreover, the “co-immunoprecipitation of ZnT-1 with LTCC” value in test [8] is listed as “much higher co-immunopercipitation; also recorded: reveals a band”; in test [10] it was “A similar effect; also recorded: reveals a band”. Besides, in test [9], the zinc efflux result is on record as “not accelerated”. Further, the “rate of Ca influx” value in test [11] is reported as “inhibits the rate of Ca influx”.
